± gives the uncertainty stated by the source.
B1: Serine/threonine-protein kinase LATS1, residues 98 to 141; numbered along this chain, O95835 (parent)
chain: TSEVNPQMLQDLQAAGFDEDMVIQALQKTNNRSIEAAIEFISKM

Variants of: B1
Test: abundance fitness (aPCA) (normalised: wild type 0, dead -1); higher = more abundant; growth selection in yeast, the domain comes from the species named
Details: Homo sapiens

Row | Variant | abundance fitness
1 | RSEVNPQMLQDLQAAGFDEDMVIQALQKTNNRSIEAAIEFISKM [T1R] | -0.072 ± 0.052
2 | LSEVNPQMLQDLQAAGFDEDMVIQALQKTNNRSIEAAIEFISKM [T1L] | -0.303 ± 0.071
3 | ASEVNPQMLQDLQAAGFDEDMVIQALQKTNNRSIEAAIEFISKM [T1A] | -0.062 ± 0.042
4 | VSEVNPQMLQDLQAAGFDEDMVIQALQKTNNRSIEAAIEFISKM [T1V] | -0.148 ± 0.048
5 | ESEVNPQMLQDLQAAGFDEDMVIQALQKTNNRSIEAAIEFISKM [T1E] | 0.019 ± 0.16
6 | TSEVNPQMLQDLQAAGFDEDMRIQALQKTNNRSIEAAIEFISKM [V22R] | -0.623 ± 0.051
7 | TSEVNPQMLQDLQAAGFDEDMAIQALQKTNNRSIEAAIEFISKM [V22A] | 0.18 ± 0.037
8 | TSEVNPQMLQDLQAAGFDEDMYIQALQKTNNRSIEAAIEFISKM [V22Y] | -0.824 ± 0.14
9 | TSEVNPQMLQDLQAAGFDEDMTIQALQKTNNRSIEAAIEFISKM [V22T] | -0.262 ± 0.048
10 | TSEVNPQMLQDLQAAGFDEDMVIQALQKTTNRSIEAAIEFISKM [N30T] | -0.533 ± 0.055
11 | TSEVNPQMLQDLQAMGFDEDMVIQALQKTNNRSIEAAIEFISKM [A15M] | 0.103 ± 0.062
12 | TSEVNPQMLQDLQAQGFDEDMVIQALQKTNNRSIEAAIEFISKM [A15Q] | 0.042 ± 0.056
13 | TSEVEPQMLQDLQAAGFDEDMVIQALQKTNNRSIEAAIEFISKM [N5E] | -0.442 ± 0.055
14 | TSEVWPQMLQDLQAAGFDEDMVIQALQKTNNRSIEAAIEFISKM [N5W] | -0.828 ± 0.066
15 | TSEVLPQMLQDLQAAGFDEDMVIQALQKTNNRSIEAAIEFISKM [N5L] | -0.878 ± 0.06
16 | TSEVYPQMLQDLQAAGFDEDMVIQALQKTNNRSIEAAIEFISKM [N5Y] | -0.964 ± 0.1
17 | TSEVIPQMLQDLQAAGFDEDMVIQALQKTNNRSIEAAIEFISKM [N5I] | -0.82 ± 0.11
18 | TSEVNPQMLQDLQAAGFDEDMVIQALQKTNNRSIEAAIEFISYM [K43Y] | -0.194 ± 0.079
19 | TSEVNPQMLQDLQAAGFDEDMVIQALQKTNNRSIEAAIEFISEM [K43E] | 0.133 ± 0.042
20 | TSEVNPQMLQDLQAAGFDEDMVIQALQKTNNRSIEAAIEFISMM [K43M] | -0.071 ± 0.088

Row | Variant | abundance fitness
21 | TSEVNPQMLQDLQAAGFDEDMVIQALQKTNNRSIEAAIEFISGM [K43G] | -0.036 ± 0.033
22 | TSEVNPQMLQDLQAAGFDEDMVIQALQKTNNRSIEAAIEFISSM [K43S] | -0.035 ± 0.042
23 | TSEVNPQMWQDLQAAGFDEDMVIQALQKTNNRSIEAAIEFISKM [L9W] | -0.649 ± 0.066
24 | TSEVNPQMYQDLQAAGFDEDMVIQALQKTNNRSIEAAIEFISKM [L9Y] | -0.421 ± 0.38
25 | TSEVNPQMLQDLQAAGFDEDMVIQRLQKTNNRSIEAAIEFISKM [A25R] | -0.768 ± 0.046
26 | TSEVNPQMLQDLQAAGFDEDMVMQALQKTNNRSIEAAIEFISKM [I23M] | -0.055 ± 0.045
27 | TSEVNPQMLQDLQAAGFDEDMVAQALQKTNNRSIEAAIEFISKM [I23A] | -0.115 ± 0.043
28 | TSEVNPQMLQDLQAAGFDEDMVDQALQKTNNRSIEAAIEFISKM [I23D] | -0.283 ± 0.081
29 | TSEVNPQMLQDLQAAGFDEDMVKQALQKTNNRSIEAAIEFISKM [I23K] | 0.041 ± 0.049
30 | TSEVNPQMLQDLQAAGFDEDMVRQALQKTNNRSIEAAIEFISKM [I23R] | 0.024 ± 0.034
31 | TSEVNPQMLQDLQAAGFDEDMVYQALQKTNNRSIEAAIEFISKM [I23Y] | -0.211 ± 0.064
32 | TSEVNPQMLQDLQAAGFDEDMVIQALQKTNNRSDEAAIEFISKM [I34D] | -0.257 ± 0.071
33 | TSEVNPQMLQDLQAAGFDEDMVIQALQKTNNRSVEAAIEFISKM [I34V] | 0.026 ± 0.034
34 | TSEVNPQMLQDLQAAGFDEDMVIQALQKTNNRSPEAAIEFISKM [I34P] | -0.051 ± 0.045
35 | TSEVNPQMLQDLQAAGFDEDMVIQALQKTNNRSGEAAIEFISKM [I34G] | -0.266 ± 0.033
36 | TSEVNPQMLQDLQAAGFDEDMVIQALQKTNNRSMEAAIEFISKM [I34M] | 0.04 ± 0.037
37 | TSEVNPKMLQDLQAAGFDEDMVIQALQKTNNRSIEAAIEFISKM [Q7K] | 0.009 ± 0.04
38 | TSEVNPDMLQDLQAAGFDEDMVIQALQKTNNRSIEAAIEFISKM [Q7D] | -0.111 ± 0.071
39 | TSEVNPPMLQDLQAAGFDEDMVIQALQKTNNRSIEAAIEFISKM [Q7P] | -0.796 ± 0.063
40 | TSEVNPQMLQDLQAAGFDEDMVIQALQKTNNRSIERAIEFISKM [A36R] | -0.404 ± 0.032

Row | Variant | abundance fitness
41 | TSEVNPQMLQDLQAAGFDEDMVIQALQKTNNRSIEWAIEFISKM [A36W] | -0.825 ± 0.06
42 | TSEVNPQMLQDLQAAGFDEDMVIQALQKTNNRSIEAAICFISKM [E39C] | -0.361 ± 0.075
43 | TSSVNPQMLQDLQAAGFDEDMVIQALQKTNNRSIEAAIEFISKM [E3S] | -0.332 ± 0.041
44 | TSYVNPQMLQDLQAAGFDEDMVIQALQKTNNRSIEAAIEFISKM [E3Y] | -0.2 ± 0.14
45 | TSAVNPQMLQDLQAAGFDEDMVIQALQKTNNRSIEAAIEFISKM [E3A] | -0.223 ± 0.041
46 | TSEVNPQMLQDLQAAGFDEDMVIQALQKTNNRSIEAAIEFITKM [S42T] | 0.103 ± 0.056
47 | TSEVNPQMLQDLQAAGFDEDMVIQALQKTNNRSIEAAIEFIWKM [S42W] | -0.14 ± 0.04
48 | TSEVNPQMLQDLQAAGFSEDMVIQALQKTNNRSIEAAIEFISKM [D18S] | -0.169 ± 0.055
49 | TSEVNPQMLQDLQAAGFCEDMVIQALQKTNNRSIEAAIEFISKM [D18C] | -0.187 ± 0.23
50 | TSEVNPQMLQDLQAAGFDEDMVIQALQTTNNRSIEAAIEFISKM [K28T] | -0.259 ± 0.067
51 | TSEVNPQMLQDLQAAGFDEDMVIFALQKTNNRSIEAAIEFISKM [Q24F] | 0.019 ± 0.13
52 | TSEVNPQMLQDLQAAGFDEDMVICALQKTNNRSIEAAIEFISKM [Q24C] | -0.043 ± 0.042
53 | TSEVNPQMLQDLQAAGFDEDMVINALQKTNNRSIEAAIEFISKM [Q24N] | -0.146 ± 0.072
54 | TSEVNPQMLQDLQAAGFDEDMVIQALQKTNNRSIEAAIEFLSKM [I41L] | -0.046 ± 0.039
55 | TSEVNPQMLQDLQAAGFDEDMVIQALQKTNNRSIEAAIEFMSKM [I41M] | 0.046 ± 0.048
56 | TSEVNPQMLQDLQAAIFDEDMVIQALQKTNNRSIEAAIEFISKM [G16I] | -1.34 ± 0.22
57 | TSEVNPQMLQDLQAACFDEDMVIQALQKTNNRSIEAAIEFISKM [G16C] | -0.914 ± 0.11
58 | TSEVNPQMLQDLQAANFDEDMVIQALQKTNNRSIEAAIEFISKM [G16N] | -0.494 ± 0.17
